Assay results from patent US20050002950.

Target: recombinant human C5a (UniProt P01031)
Sequence (P01031 678-751): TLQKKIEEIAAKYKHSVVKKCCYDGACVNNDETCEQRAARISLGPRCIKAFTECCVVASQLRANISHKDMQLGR

Substance: ScpB, the C5a peptidase of GBS, on whole cells of strain COH1
- C5a protease activity (C5a-stimulated PMN adherence to gelatin-coated plastic after preincubating C5a with GBS): Preincubation of C5a with COH1 or TOH121 abolished C5a activity
